Measured values as given in article PMC13582642.
Several values for one entry are separate records, joined by “and”; a condition that tells them apart may be missing. Identical values can stand only once.

How the values were obtained:
[1] = target: Fc gamma receptor IIa (human (endogenous in moDCs)) (UniProt P12318)
[2] = target: macrophage mannose receptor (CD206) (human (endogenous in moDCs)) (UniProt P22897)
[3] = target: UV-stressed (aggregated) infliximab; experiment: SEC; Agilent Bio SEC-3 column, 25 °C, 50 mM sodium phosphate, 150 mM KCl, 10% isopropanol, pH 6.8; samples at 1 mg/ml; fluorescence detection; percentages from peak areas
[4] = target: UV-stressed (aggregated) infliximab; experiment: FFF-MALS; asymmetric flow field flow fractionation (Eclipse AF4) with UV, MALS and dRI detectors; mobile phase 0.01 M monopotassium phosphate, 0.0027 M potassium chloride, 0.137 M sodium chloride
[5] = SEC; Agilent Bio SEC-3 column, 25 °C, 50 mM sodium phosphate, 150 mM KCl, 10% isopropanol, pH 6.8; samples at 1 mg/ml; fluorescence detection; percentages from peak areas

Sequence of UniProt P22897 (P22897 19-1456): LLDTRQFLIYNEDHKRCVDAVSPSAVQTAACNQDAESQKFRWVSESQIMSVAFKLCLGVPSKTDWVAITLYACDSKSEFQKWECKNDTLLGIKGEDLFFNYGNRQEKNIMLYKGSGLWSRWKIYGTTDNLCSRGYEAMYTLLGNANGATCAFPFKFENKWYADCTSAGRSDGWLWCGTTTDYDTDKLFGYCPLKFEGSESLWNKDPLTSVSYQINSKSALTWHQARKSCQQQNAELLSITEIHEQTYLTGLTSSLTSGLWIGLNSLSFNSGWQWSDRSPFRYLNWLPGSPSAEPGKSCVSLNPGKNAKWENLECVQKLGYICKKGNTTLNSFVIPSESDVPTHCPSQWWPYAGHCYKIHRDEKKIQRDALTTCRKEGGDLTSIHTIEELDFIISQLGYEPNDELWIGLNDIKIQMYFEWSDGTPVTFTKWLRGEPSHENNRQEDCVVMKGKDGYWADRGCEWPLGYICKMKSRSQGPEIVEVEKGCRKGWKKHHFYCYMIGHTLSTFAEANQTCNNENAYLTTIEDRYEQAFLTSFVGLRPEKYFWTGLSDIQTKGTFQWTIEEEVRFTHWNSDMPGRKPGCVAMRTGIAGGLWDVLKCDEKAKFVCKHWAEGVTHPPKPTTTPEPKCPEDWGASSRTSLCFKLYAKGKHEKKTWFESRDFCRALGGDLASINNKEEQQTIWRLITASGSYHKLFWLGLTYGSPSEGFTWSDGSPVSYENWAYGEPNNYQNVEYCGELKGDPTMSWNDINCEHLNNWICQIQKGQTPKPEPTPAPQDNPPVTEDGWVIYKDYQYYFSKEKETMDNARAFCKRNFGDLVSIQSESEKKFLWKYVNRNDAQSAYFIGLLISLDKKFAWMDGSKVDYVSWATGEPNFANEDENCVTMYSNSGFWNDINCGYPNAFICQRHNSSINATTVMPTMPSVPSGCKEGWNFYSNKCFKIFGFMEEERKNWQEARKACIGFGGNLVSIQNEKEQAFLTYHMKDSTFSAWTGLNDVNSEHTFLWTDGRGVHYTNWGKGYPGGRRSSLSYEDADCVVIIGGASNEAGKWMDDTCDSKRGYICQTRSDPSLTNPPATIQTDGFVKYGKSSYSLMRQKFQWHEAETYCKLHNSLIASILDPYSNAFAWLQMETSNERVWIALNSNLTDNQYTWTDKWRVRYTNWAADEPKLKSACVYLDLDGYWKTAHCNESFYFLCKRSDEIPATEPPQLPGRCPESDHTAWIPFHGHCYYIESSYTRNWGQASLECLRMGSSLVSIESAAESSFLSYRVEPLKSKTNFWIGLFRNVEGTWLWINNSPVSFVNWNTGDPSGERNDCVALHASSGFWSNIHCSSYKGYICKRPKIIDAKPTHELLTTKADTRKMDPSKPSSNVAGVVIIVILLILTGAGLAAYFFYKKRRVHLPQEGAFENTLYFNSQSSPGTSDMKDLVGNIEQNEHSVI
Sequence of UniProt P12318 (P12318 34-317): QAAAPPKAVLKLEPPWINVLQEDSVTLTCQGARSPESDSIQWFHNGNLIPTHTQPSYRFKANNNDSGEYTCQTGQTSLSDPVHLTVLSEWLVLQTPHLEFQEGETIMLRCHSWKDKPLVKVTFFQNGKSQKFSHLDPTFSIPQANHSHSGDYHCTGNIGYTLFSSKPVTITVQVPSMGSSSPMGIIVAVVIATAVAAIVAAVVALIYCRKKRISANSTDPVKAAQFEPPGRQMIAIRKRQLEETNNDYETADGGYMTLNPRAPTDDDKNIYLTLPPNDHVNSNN

Row | reduction of the uptake of AF-488 IFX UV by moDCs after pre-treatment with anti-FcγRIIa Ab (1 µg/ml) [1] [%] | inhibition of the internalization rate of AF-488 IFX UV by moDCs (flow cytometry, 37 °C minus 4 °C) after pre-treatment with anti-CD206 IgG (10 µg/ml) [2] [%] | inhibition of the percentage of moDCs internalizing AF-488 IFX UV after pre-treatment with anti-CD206 IgG (10 µg/ml) [2] [%] | stoichiometry N [3] | percent of dimers (FFF-MALS) [4] [%] | percent of trimers and oligomers (FFF-MALS) [4] [%] | Substance | percent of dimers (ratio of SEC peak areas) [5] | percent of trimers (ratio of SEC peak areas) [5]
1 | 19 | 39 | 32 | 2 and 3 | 22.4 | 24.7 | UV-stressed (aggregated) infliximab (antibody) | – | –
2 | – | – | – | – | – | – | UV-stressed (aggregated) infliximab | 19.27% ± 0.24% dimers | 26.19% ± 3.95 trimers
